# In the MegaScale stability set (Tsuboyama et al. 2023):
# B1: 5KPH (parent)
# chain: EEKRQVKQVAKEKLLEQSPNSKVQVRRVQKQGNTIRVELELRTNGKKENYTVEVERQGNTWTVKRITRT
# Variants of: B1
# Assay: folding stability dG (cDNA display proteolysis); higher = more stable
# Details: PBS, room temperature
row,Variant,folding stability dG
1,EEKRQVKQVAKEKLLEQSPNSKVQVRRVQKQGNTIRVELELRTNGKKENYTVEVERQGNQWTVKRITRT,4.23 kcal/mol
2,EEKRQVKQVAKEKLLEQSPNSKVQVRRVQKQGNTIRVELELRTNGKKENYTVEVERQGNGWTVKRITRT,4.12 kcal/mol
3,EEKRQVKQVAKEKLLEQSPNSKVQVRRVQKQGNTIRVELELRTNGKKENYTVEVERQGNCWTVKRITRT,3.33 kcal/mol
4,EEKRQVKQVAKEKLLEQSPNSKVQVRRVQKQGNTIRVELELRTNGKKENYTVEVERQGNEWTVKRITRT,4.16 kcal/mol
5,EEKRQVKQVAKEKLLEQSPNSKVQVRRVQKQGNTIRVELELRTNGKKENYTVEVERQGNWWTVKRITRT,4.16 kcal/mol
6,EEKRQVKQVAKEKLLEQSPNSKVQVRRVQKQGNTIRVELELRTNGKKENYTVEVERQGNAWTVKRITRT,3.83 kcal/mol
7,EEKRQVKQVAKEKLLEQSPNSKVQVRRVQKQGNTIRVELELRTNGKKENYTVEVERQGNSWTVKRITRT,4.13 kcal/mol
8,EEKRQVKQVAKEKLLEQSPNSKVQVRRVQKQGNTIRVELELRTNGKKENYTVEVERQGNMWTVKRITRT,4 kcal/mol
9,EEKRQVKQVAKEKLLEQSPNSKVQVRRVQKQGNTIRVELELRTNGKKENYTVEVERQGNLWTVKRITRT,3.63 kcal/mol
10,EEKRQVKQVAKEKLLEQSPNSKVQVRRVQKQGNTIRVELELRTNGKKENYTVEVERQGNNWTVKRITRT,4.07 kcal/mol
11,EEKRQVKQVAKEKLLEQSPNSKVQVRRVQKQGNTIRVELELRTNGKKENYTVEVERQGNHWTVKRITRT,4.02 kcal/mol
12,EEKRQVKQVAKEKLLEQSPNSKVQVRRVQKQGNTIRVELELRTNGKKENYTVEVERQGNRWTVKRITRT,3.97 kcal/mol
13,EEKRQVKQVAKEKLLEQSPNSKVQVRRVQKQGNTIRVELELRTNGKKENYTVEVERQGNVWTVKRITRT,4.01 kcal/mol
14,EEKRQVKQVAKEKLLEQSPNSKVQVRRVQKQGNTIRVELELRTNGKKENYTVEVERQGNDWTVKRITRT,3.77 kcal/mol
15,EEKRQVKQVAKEKLLEQSPNSKVQVRRVQKQGNTIRVELELRTNGKKENYTVEVERQGNPWTVKRITRT,1.45 kcal/mol
16,EEKRQVKQVAKEKLLEQSPNSKVQVRRVQKQGNTIRVELELRTNGKKENYTVEVERQGNIWTVKRITRT,4.11 kcal/mol
17,EEKRQVKQVAKEKLLEQSPNSKVQVRRVQKQGNTIRVELELRTNGKKENYTVEVERQGNFWTVKRITRT,3.96 kcal/mol
18,EEKRQVKQVAKEKLLEQSPNSKVQVRRVQKQGNTIRVELELRTNGKKENYTVEVERQGNKWTVKRITRT,3.99 kcal/mol
19,EEKRQVKQVAKEKLLEQSPNSKVQVRRVQKQGNTIRVELELRTNGKKENYTVEVERQGNYWTVKRITRT,3.79 kcal/mol
20,EEKRQVKQVAKEKLLEQSPNSKVQVRRVQKQGNTIRVELELRTNGKKENYTVEVERQGNTSTVKRITRT,2 kcal/mol
21,EEKRQVKQVAKEKLLEQSPNSKVQVRRVQKQGNTIRVELELRTNGKKENYTVEVERQGNTTTVKRITRT,2.21 kcal/mol
22,EEKRQVKQVAKEKLLEQSPNSKVQVRRVQKQGNTIRVELELRTNGKKENYTVEVERQGNTATVKRITRT,2.23 kcal/mol
23,EEKRQVKQVAKEKLLEQSPNSKVQVRRVQKQGNTIRVELELRTNGKKENYTVEVERQGNTQTVKRITRT,1.88 kcal/mol
24,EEKRQVKQVAKEKLLEQSPNSKVQVRRVQKQGNTIRVELELRTNGKKENYTVEVERQGNTETVKRITRT,0.848 kcal/mol
25,EEKRQVKQVAKEKLLEQSPNSKVQVRRVQKQGNTIRVELELRTNGKKENYTVEVERQGNTKTVKRITRT,0.975 kcal/mol
26,EEKRQVKQVAKEKLLEQSPNSKVQVRRVQKQGNTIRVELELRTNGKKENYTVEVERQGNTLTVKRITRT,3.64 kcal/mol

row,Variant,folding stability dG
1,EEKRQVKQVAKEKLLEQSPNSKVQVRRVQKQGNTIRVELELRTNGKKENYTVEVERQGNTFTVKRITRT,3.74 kcal/mol
2,EEKRQVKQVAKEKLLEQSPNSKVQVRRVQKQGNTIRVELELRTNGKKENYTVEVERQGNTYTVKRITRT,4.03 kcal/mol
3,EEKRQVKQVAKEKLLEQSPNSKVQVRRVQKQGNTIRVELELRTNGKKENYTVEVERQGNTMTVKRITRT,3.21 kcal/mol
4,EEKRQVKQVAKEKLLEQSPNSKVQVRRVQKQGNTIRVELELRTNGKKENYTVEVERQGNTHTVKRITRT,2.59 kcal/mol
5,EEKRQVKQVAKEKLLEQSPNSKVQVRRVQKQGNTIRVELELRTNGKKENYTVEVERQGNTITVKRITRT,3.14 kcal/mol
6,EEKRQVKQVAKEKLLEQSPNSKVQVRRVQKQGNTIRVELELRTNGKKENYTVEVERQGNTPTVKRITRT,1.94 kcal/mol
7,EEKRQVKQVAKEKLLEQSPNSKVQVRRVQKQGNTIRVELELRTNGKKENYTVEVERQGNTVTVKRITRT,2.9 kcal/mol
8,EEKRQVKQVAKEKLLEQSPNSKVQVRRVQKQGNTIRVELELRTNGKKENYTVEVERQGNTGTVKRITRT,1.39 kcal/mol
9,EEKRQVKQVAKEKLLEQSPNSKVQVRRVQKQGNTIRVELELRTNGKKENYTVEVERQGNTDTVKRITRT,1.07 kcal/mol
10,EEKRQVKQVAKEKLLEQSPNSKVQVRRVQKQGNTIRVELELRTNGKKENYTVEVERQGNTCTVKRITRT,2.68 kcal/mol
11,EEKRQVKQVAKEKLLEQSPNSKVQVRRVQKQGNTIRVELELRTNGKKENYTVEVERQGNTNTVKRITRT,1.83 kcal/mol
12,EEKRQVKQVAKEKLLEQSPNSKVQVRRVQKQGNTIRVELELRTNGKKENYTVEVERQGNTRTVKRITRT,1.41 kcal/mol
13,EEKRQVKQVAKEKLLEQSPNSKVQVRRVQKQGNTIRVELELRTNGKKENYTVEVERQWNTWTVKRITRT,3 kcal/mol
14,EEKRQVKQVAKEKLLEQSPNSKVQVRRVQKQGNTIRVELELRTNGKKENYTVEVERQYNTWTVKRITRT,3.15 kcal/mol
15,EEKRQVKQVAKEKLLEQSPNSKVQVRRVQKQGNTIRVELELRTNGKKENYTVEVERQGNTWWVKRITRT,4.24 kcal/mol
16,EEKRQVKQVAKEKLLEQSPNSKVQVRRVQKQGNTIRVELELRTNGKKENYTVEVERQGNTWVVKRITRT,4.27 kcal/mol
17,EEKRQVKQVAKEKLLEQSPNSKVQVRRVQKQGNTIRVELELRTNGKKENYTVEVERQGNTWHVKRITRT,3.93 kcal/mol
18,EEKRQVKQVAKEKLLEQSPNSKVQVRRVQKQGNTIRVELELRTNGKKENYTVEVERQGNTWFVKRITRT,4.24 kcal/mol
19,EEKRQVKQVAKEKLLEQSPNSKVQVRRVQKQGNTIRVELELRTNGKKENYTVEVERQGNTWRVKRITRT,3.9 kcal/mol
20,EEKRQVKQVAKEKLLEQSPNSKVQVRRVQKQGNTIRVELELRTNGKKENYTVEVERQGNTWKVKRITRT,3.96 kcal/mol
21,EEKRQVKQVAKEKLLEQSPNSKVQVRRVQKQGNTIRVELELRTNGKKENYTVEVERQGNTWIVKRITRT,4.26 kcal/mol
22,EEKRQVKQVAKEKLLEQSPNSKVQVRRVQKQGNTIRVELELRTNGKKENYTVEVERQGNTWDVKRITRT,3.13 kcal/mol
23,EEKRQVKQVAKEKLLEQSPNSKVQVRRVQKQGNTIRVELELRTNGKKENYTVEVERQGNTWPVKRITRT,1.79 kcal/mol
24,EEKRQVKQVAKEKLLEQSPNSKVQVRRVQKQGNTIRVELELRTNGKKENYTVEVERQGNTWMVKRITRT,3.97 kcal/mol
25,EEKRQVKQVAKEKLLEQSPNSKVQVRRVQKQGNTIRVELELRTNGKKENYTVEVERQGNTWCVKRITRT,3.48 kcal/mol
26,EEKRQVKQVAKEKLLEQSPNSKVQVRRVQKQGNTIRVELELRTNGKKENYTVEVERQGNTWGVKRITRT,3.48 kcal/mol

row,Variant,folding stability dG
1,EEKRQVKQVAKEKLLEQSPNSKVQVRRVQKQGNTIRVELELRTNGKKENYTVEVERQGNTWAVKRITRT,4.05 kcal/mol
2,EEKRQVKQVAKEKLLEQSPNSKVQVRRVQKQGNTIRVELELRTNGKKENYTVEVERQGNTWYVKRITRT,4.57 kcal/mol
3,EEKRQVKQVAKEKLLEQSPNSKVQVRRVQKQGNTIRVELELRTNGKKENYTVEVERQGNTWEVKRITRT,3.82 kcal/mol
4,EEKRQVKQVAKEKLLEQSPNSKVQVRRVQKQGNTIRVELELRTNGKKENYTVEVERQGNTWSVKRITRT,3.75 kcal/mol
5,EEKRQVKQVAKEKLLEQSPNSKVQVRRVQKQGNTIRVELELRTNGKKENYTVEVERQGNTWNVKRITRT,3.62 kcal/mol
6,EEKRQVKQVAKEKLLEQSPNSKVQVRRVQKQGNTIRVELELRTNGKKENYTVEVERQGNTWLVKRITRT,4.03 kcal/mol
7,EEKRQVKQVAKEKLLEQSPNSKVQVRRVQKQGNTIRVELELRTNGKKENYTVEVERQGNTWQVKRITRT,3.92 kcal/mol
8,EEKRQVKQVAKEKLLEQSPNSKVQVRRVQKQGNTIRVELELRTNGKKENYTVEVERQGITWTVKRITRT,3.54 kcal/mol
9,EEKRQVKQVAKEKLLEQSPNSKVQVRRVQKQGNTIRVELELRTNGKKENYTVEVERQGWTWTVKRITRT,3.5 kcal/mol
10,EEKRQVKQVAKEKLLEQSPNSKVQVRRVQKQGNTIRVELELRTNGKKENYTVEVERQGKTWTVKRITRT,3.73 kcal/mol
11,EEKRQVKQVAKEKLLEQSPNSKVQVRRVQKQGNTIRVELELRTNGKKENYTVEVERQGGTWTVKRITRT,4 kcal/mol
12,EEKRQVKQVAKEKLLEQSPNSKVQVRRVQKQGNTIRVELELRTNGKKENYTVEVERQGLTWTVKRITRT,3.68 kcal/mol
13,EEKRQVKQVAKEKLLEQSPNSKVQVRRVQKQGNTIRVELELRTNGKKENYTVEVERQGPTWTVKRITRT,3.84 kcal/mol
14,EEKRQVKQVAKEKLLEQSPNSKVQVRRVQKQGNTIRVELELRTNGKKENYTVEVERQGETWTVKRITRT,3.92 kcal/mol
15,EEKRQVKQVAKEKLLEQSPNSKVQVRRVQKQGNTIRVELELRTNGKKENYTVEVERQGMTWTVKRITRT,3.92 kcal/mol
16,EEKRQVKQVAKEKLLEQSPNSKVQVRRVQKQGNTIRVELELRTNGKKENYTVEVERQGRTWTVKRITRT,3.33 kcal/mol
17,EEKRQVKQVAKEKLLEQSPNSKVQVRRVQKQGNTIRVELELRTNGKKENYTVEVERQGFTWTVKRITRT,3.54 kcal/mol
18,EEKRQVKQVAKEKLLEQSPNSKVQVRRVQKQGNTIRVELELRTNGKKENYTVEVERQGTTWTVKRITRT,3.77 kcal/mol
19,EEKRQVKQVAKEKLLEQSPNSKVQVRRVQKQGNTIRVELELRTNGKKENYTVEVERQGYTWTVKRITRT,3.82 kcal/mol
20,EEKRQVKQVAKEKLLEQSPNSKVQVRRVQKQGNTIRVELELRTNGKKENYTVEVERQGDTWTVKRITRT,4.01 kcal/mol
21,EEKRQVKQVAKEKLLEQSPNSKVQVRRVQKQGNTIRVELELRTNGKKENYTVEVERQGHTWTVKRITRT,3.62 kcal/mol
22,EEKRQVKQVAKEKLLEQSPNSKVQVRRVQKQGNTIRVELELRTNGKKENYTVEVERQGSTWTVKRITRT,3.62 kcal/mol
23,EEKRQVKQVAKEKLLEQSPNSKVQVRRVQKQGNTIRVELELRTNGKKENYTVEVERQGVTWTVKRITRT,3.42 kcal/mol
24,EEKRQVKQVAKEKLLEQSPNSKVQVRRVQKQGNTIRVELELRTNGKKENYTVEVERQGQTWTVKRITRT,3.77 kcal/mol
25,EEKRQVKQVAKEKLLEQSPNSKVQVRRVQKQGNTIRVELELRTNGKKENYTVEVERQGATWTVKRITRT,3.69 kcal/mol
26,EEKRQVKQVAKEKLLEQSPNSKVQVRRVQKQGNTIRVELELRTNGKKENYTVEVERQGCTWTVKRITRT,3.22 kcal/mol
